This is an account of results in publication PMC7954794, “Protein context shapes the specificity of SH3 domain-mediated interactions in vivo” (Nature Communications, 2021).

This assay relates to ABP1. Put plainly: DHFR-PCA on solid medium, bait ABP1 (Fig. 1B). Type of assay: cell-based, Saccharomyces cerevisiae. The conditions noted are these: bait ABP1, label = prey; for medrep (log2 median colony size normalized to plate background, PCA score): 2-4 replicates; for Ratio (SH3-deleted/WT medrep): only significant differences showed, PPIs completely lost have a ratio of 0.1 and the gained PPIs 2.5. From the text: Supplement 41467_2021_21873_MOESM8_ESM.xlsx, sheet "Fig1B" | column: medsize; medrep; Ratio; Score

B1: YNL287W (protein, UniProt P32074 1-935, looked up)
Coatomer subunit gamma: MSAHTYKKFENSTSGDLPDKMTIYQDCMNTFNESPVNSKRCRLLISRLLRLLAQGETFPQNEATALFFSISKLFQHQNDPLRQAVYLAIKELSGISEDVLMATSSIMKDVQNGSDLIKPDAIRSLTYVLDESTAFSAERLLKSAVVSRHPSISSAALCTSYHLLPISEVTIRRFTNETQEAVLDLKQFPNQHGNSEYYPNSTYISQYHALGLLYQLKKTDKMALLKLVRHFSENNSMKNQLAKVELVKIVNDLIYRDPQLFSQFRPLLSDWLSNKFESVQLETAKLITSFATRNSRLVAPELYAAAISALQSLLTVPRVSSRFAALRILNRISMVSPEKIVVCNPELESLINDSNRNISTYAITTLLKTGTSKNISSLISTITNFIHDVSDDFKIIIIDAVRTLSLNFPQEWKSILNFLIDVLKNSEGGFKFKNSIVEALIDIVSFVPQSKELALENLCDFIEDCEFNEILVRILHLLGKEGPSAPNPSLYVRHIYNRVVLENSIIRSAAVVALSKFALTKNDPTLYESIISLLKRIANDKDDEVRDRATIALEFIDSARNKDDVIAQNLIESKYFYDIPSLESKLSSYISSNTDSFATAFDVNQVRKFTEDEMKAINLKRKQEQIFNQKSETTLDTTPEAESVPEKRADANSFAGPNLDDHQEDLLATKYADELLSIEQIKPFGQLVNSSRAISLTEPEAEFVVRGVKHLFKDNVVLQFNITNTLTDIALDNVSVVCTPEISDEAELEELFTLQVDRLLPSEEAACYVAFKKLDEIVMEGFLNNLTFTTKEINPDTNEPFDGDEGFQDEYEIDSIFLNAGDYVKSSFTGNFSATFDELPCEEVAVFNIQEDLSIQEVVDKIILNSSCLPVESTQFAPSDSNSHTLKLFGKSALTGSKVALQIKMIKSSKGLALKVHGKGEDSLLCSDLVNGLMQ
B1: the “medrep (log2 median colony size normalized to plate background, PCA score)” value is 2.55 and the “Ratio (SH3-deleted/WT medrep)” value amounted to 1.797.

B2: YJR083C (protein, UniProt P47129 1-309, looked up)
Assembly-complementing factor …: MSEDQRVISQPIELHKLSIVDKHSQGQQQQPHQKQHEVQPESKSPRVTTPLKPKRLAIPISSPQRSTTNQSPVSDHASPISTDQDLIYKLAAKHREINELSFKLEVAQKELKQLELQFKDTLPRNGQQKLGNQNPSEYLSTFTKRIQQTFVDVNNSPNMLKGKKSINDFFSKPNNNVNSNINNTLPNRKPNPPPNRSQRMQNIAPSRSSESTPTSGPPLLPPRNTMKNANTTATAGENTPFLQRILNKFNQMNMEEDEFDDLLEKRKSKKDHYYIKENLGYEYDEVRSEDEDDEEFEPMGDIPVHLFKR
In the case of B2, the “medrep (log2 median colony size normalized to plate background, PCA score)” value amounted to 1.804 and the “Ratio (SH3-deleted/WT medrep)” value is 0.1.

B3: YBR130C (protein, UniProt P38272 1-425, looked up)
SWI5-dependent HO expression …: MSDQDNTQTSSSKLAPHHNIFMANLESSPTKDRNTSSQNASSSRVIESLHDQIDMLTKTNLQLTTQSQNLLSKLELAQSKESKLLENLNLLKNENENLNSIFERKNKKLKELEKDYSELSNRYNEQKEKMDQLSKLAKNSSAIEQSCSEKLQNMEVNYNSLLESQNLYRDHYSDEISKLNEKIGLLELELSNQNLNYGSDTSSNSDIELNLNKFNDSVKDLKSLETEKDSKLSKIITHSLDELNLQSWLNLYQTNENLISTFAEKMDLKDVLKRNDEKISNKGAVVQTLKKNVQTQVESNNADALSSNNAQDMLPIKMVKLRKTPNTNDSSSNGNSSNNKRRSFYTASPLLSSGSIPKSASPVLPGVKRTASVRKPSSSSSKTNVTHNNDPSTSPTISVPPGVTRTVSSTHKKKGNSMVVHGAQS
For the molecule B3, the “medrep (log2 median colony size normalized to plate background, PCA score)” value is 2.63.

B4: YOR284W (protein, UniProt Q12134 1-243, looked up)
Protein HUA2: MQQTKFGKMYLDHDSVVEYSEDEIVEADRITLGYKKRLSMIENQMRHLLEDFSLDVQQIEPILADLQKYYDAFLQLLQKRNKSLQCKRSTHQPVPSPMNSQTSTNAKVNLSGKLMKFQLNSVQKFDEENILRILQNKIEFEHYFQIDKGKKQKVLLLAVYQCLNGPTRLHKVLNIEGIIHNNSIRTILGKQVSSSKWTVFLYDVKLVLLAHRQDVPNLETSKMIVRYGDLFPCALYFKDHTAY
Turning to B4, the “medrep (log2 median colony size normalized to plate background, PCA score)” value was 3.262 and the “Ratio (SH3-deleted/WT medrep)” value was 0.1.

B5: YDL160C (protein, UniProt P39517 1-506, looked up)
ATP-dependent RNA helicase …: MGSINNNFNTNNNSNTDLDRDWKTALNIPKKDTRPQTDDVLNTKGNTFEDFYLKRELLMGIFEAGFEKPSPIQEEAIPVAITGRDILARAKNGTGKTAAFVIPTLEKVKPKLNKIQALIMVPTRELALQTSQVVRTLGKHCGISCMVTTGGTNLRDDILRLNETVHILVGTPGRVLDLASRKVADLSDCSLFIMDEADKMLSRDFKTIIEQILSFLPPTHQSLLFSATFPLTVKEFMVKHLHKPYEINLMEELTLKGITQYYAFVEERQKLHCLNTLFSKLQINQAIIFCNSTNRVELLAKKITDLGYSCYYSHARMKQQERNKVFHEFRQGKVRTLVCSDLLTRGIDIQAVNVVINFDFPKTAETYLHRIGRSGRFGHLGLAINLINWNDRFNLYKIEQELGTEIAAIPATIDKSLYVAENDETVPVPFPIEQQSYHQQAIPQQQLPSQQQFAIPPQQHHPQFMVPPSHQQQQAYPPPQMPSQQGYPPQQEHFMAMPPGQSQPQY
Take B5: the “medrep (log2 median colony size normalized to plate background, PCA score)” value is reported as 1.807 and the “Ratio (SH3-deleted/WT medrep)” value worked out at 2.5.

B6: YNL094W (protein, UniProt P53933 1-587, looked up)
Phosphatidate phosphatase APP1: MNSQGYDESSSSTAATSGPTSGDPRMGKKQRFMNLIRTTKDVYIPNLTSSISQKTMDGIRSTTNSFEGYNDLPMELPHNTTITYFPTYTTTNLVDPDGLSAPRKDFETTVRCAVSYPGNPTSRRNRWLLSLCKQYLRTGTAEADVAPVVPPHLEEDSGDLNDSQSSIESSLSSKSENRYSHMGIQEEDVLNERIQGFLSKKVPNTPVVVDLLPKDKLRGDTASFFGTTDSYGNLLIKAETDFLPSKINITLDTPIEGHADPISETFPANYVSPYGIGLISDIDDTIKHTGVTGDRRSMFRNVFIHDVQSWVIDGVPLWYKTLHDVADVDFFYVSNSPIQTFTLLKQYICANFPPGPIFLKQYSGNFFSTIMTSSANRKIQPIANILKDFPKKKFILVGDSGEHDLEAYTTTALQFPNQILAIYIRCCSNSMSDVPSHDEEVMNEVNNIIELQQRPMQMTKSTVRTRRRPPPPPIPSTQKPSLTEEQTESIRMSRRNKDENNAKRVAPPPLPNRQLPNLDANTYYVPSSQNDYGMYGAFMDKKADEWKRRVMDSIQKLSNQDTTLMFFSDPALSLEDSIRRIREKYSN
In the case of B6, the “medrep (log2 median colony size normalized to plate background, PCA score)” value is recorded as 1.857 and the “Ratio (SH3-deleted/WT medrep)” value was found to be 0.1.

B7: YAR042W (protein, UniProt P35845 1-1188, looked up)
Oxysterol-binding protein …: MEQPDLSSVAISKPLLKLKLLDALRQGSFPNLQDLLKKQFQPLDDPNVQQVLHLMLHYAVQVAPMAVIKEIVHHWVSTTNTTFLNIHLDLNERDSNGNTPLHIAAYQSRGDIVAFLLDQPTINDCVLNNSHLQAIEMCKNLNIAQMMQVKRSTYVAETAQEFRTAFNNRDFGHLESILSSPRNAELLDINGMDPETGDTVLHEFVKKRDVIMCRWLLEHGADPFKRDRKGKLPIELVRKVNENDTATNTKIAIDIELKKLLERATREQSVIDVTNNNLHEAPTYKGYLKKWTNFAQGYKLRWFILSSDGKLSYYIDQADTKNACRGSLNMSSCSLHLDSSEKLKFEIIGGNNGVIRWHLKGNHPIETNRWVWAIQGAIRYAKDREILLHNGPYSPSLALSHGLSSKVSNKENLHATSKRLTKSPHLSKSTLTQNDHDNDDDSTNNNNNKSNNDYDDNNNNNNNDDDDYDDDDESRPLIEPLPLISSRSQSLSEITPGPHSRKSTVSSTRAADIPSDDEGYSEDDSDDDGNSSYTMENGGENDGDEDLNAIYGPYIQKLHMLQRSISIELASLNELLQDKQQHDEYWNTVNTSIETVSEFFDKLNRLTSQREKRMIAQMTKQRDVNNVWIQSVKDLEMELVDKDEKLVALDKERKNLKKMLQKKLNNQPQVETEANEESDDANSMIKGSQESTNTLEEIVKFIEATKESDEDSDADEFFDAEEAASDKKANDSEDLTTNKETPANAKPQEEAPEDESLIVISSPQVEKKNQLLKEGSFVGYEDPVRTKLALDEDNRPKIGLWSVLKSMVGQDLTKLTLPVSFNEPTSLLQRVSEDIEYSHILDQAATFEDSSLRMLYVAAFTASMYASTTNRVSKPFNPLLGETFEYARTDGQYRFFTEQVSHHPPISATWTESPKWDFYGECNVDSSFNGRTFAVQHLGLWYITIRPDHNISVPEETYSWKKPNNTVIGILMGKPQVDNSGDVKVTNHTTGDYCMLHYKAHGWTSAGAYEVRGEVFNKDDKKLWVLGGHWNDSIYGKKVTARGGELTLDRIKTANSATGGPKLDGSKFLIWKANERPSVPFNLTSFALTLNALPPHLIPYLAPTDSRLRPDQRAMENGEYDKAAAEKHRVEVKQRAAKKEREQKGEEYRPKWFVQEEHPVTKSLYWKFNGEYWNKRKNHDFKDCADIF
B7: the “medrep (log2 median colony size normalized to plate background, PCA score)” value is given as 1.62 and the “Ratio (SH3-deleted/WT medrep)” value is 2.5.

B8: YGL099W (protein, UniProt P53145 1-640, looked up)
Large subunit GTPase 1: MPPKEAPKKWKAPKGPKPTHRKNKNKLELGRAIKYARQKENAIEYLPDGEMRFTTDKHEANWVKLRSVTQESALDEFLSTAALADKDFTADRHSNVKIIRMDSGNDSATSQGFSMTNEQRGNLNAKQRALAKDLIVPRRPEWNEGMSKFQLDRQEKEAFLEWRRKLAHLQESNEDLLLTPFERNIEVWKQLWRVVERSDLVVQIVDARNPLLFRSVDLERYVKESDDRKANLLLVNKADLLTKKQRIAWAKYFISKNISFTFYSALRANQLLEKQKEMGEDYREQDFEEADKEGFDADEKVMEKVKILSIDQLEELFLSKAPNEPLLPPLPGQPPLINIGLVGYPNVGKSSTINSLVGAKKVSVSSTPGKTKHFQTIKLSDSVMLCDCPGLVFPNFAYNKGELVCNGVLPIDQLRDYIGPAGLVAERIPKYYIEAIYGIHIQTKSRDEGGNGDIPTAQELLVAYARARGYMTQGYGSADEPRASRYILKDYVNGKLLYVNPPPHLEDDTPYTREECEEFNKDLYVFDRLPDTRKEQVQNAAKAKGIDIVDLARDLNQLTFSAHTGGDTQKEAKSVTHGGKQAALYNAAEDLDRDFFKMNNVEGRLSTPFHKVQNSSAGKRHNKKNKSKNAKSKVFSIENN
As for B8, the “medrep (log2 median colony size normalized to plate background, PCA score)” value is given as 1.414 and the “Ratio (SH3-deleted/WT medrep)” value is recorded as 0.1.
